Reference: article PMC6181373
“And” between values parts separate entries of the source, which are not always exact repeats. Equal values may be shown once.

Assays:
Test in all cases: SPRi
Conditions in all cases: 5' disulfide, aptamer on gold chip, 10 mM HEPES, 120 mM NaCl, 10 mM KCl, 5 mM MgCl2, pH 7.4, targets in PBS with 0.1% Tween, random-DNA signal subtracted, temperature …
[1] = target: LDL particle (all LDL-P; ApoB100 lipoprotein) (UniProt P04114)
[2] = target: LDL particle (all LDL-P; ApoB100 lipoprotein) (UniProt P04114); remark: listed apart in the source
[3] = target: SD-LDL (small dense LDL particle; ApoB100 lipoprotein) (UniProt P04114)
HDL particle = test system: HDL particle
[4] = target: LF-LDL (LDL subfraction particle; ApoB100 lipoprotein) (UniProt P04114)

Row | Sequence | Kd [1] | Kd [2] [nM] | Kd [3] [nM] | Kd (HDL particle) [nM] | Kd [4] [nM]
1 | AACTACATGGTATGTGGTGAACTAAACCATTCTTGTCTCGCATTTTTCTCTTTTATATTATTTGACGTACAATGTACCC [LDL-A38] | 0.0207 nM and 0.0178 nM | 0.0455 | 0.234 | 11.5 | –
2 | AACTACATGGTATGTGGTGAACTAACCTTAATTTACCCTTGTTTTATCATTTCCATCATAGCTGACGTACAATGTACCC [LDL-A12] | 0.0108 nM and 0.0466 nM | 0.0497 | 0.023 | 9.69 | –
3 | AACTACATGGTATGTGGTGAACTACCTCGATTTTATATTATTTCGCTTACCAACAACTGCAGAGACGTACAATGTACCC [LDL-A1] | 0.0214 nM | 0.0531 | 0.302 | 8.26 | 0.0327
4 | AACTACATGGTATGTGGTGAACTGTCAGCTTCTTCTATATAATTCACCTTGCCTCTCGTTCCTGACGTACAATGTACCC [LDL-A2] | 0.015 nM and 0.00512 nM | 0.0421 | – | 7.25 | 0.0159
